According to patent publication US20190345535A1:

Experiments:
Assay in all cases: cell-based or functional assay
[1] = target: GFP^2-Pflu-H3-RLuc2 fusion protein
[2] = target: GFP^2-Pflu1-RLuc2 fusion protein (Pflu sensor 1)
[3] = target: GFP^2-Pflu2-RLuc2 fusion protein (Pflu sensor 2)
[4] = target: GFP^2-Pflu3-RLuc2 fusion protein (Pflu sensor 3)
[5] = target: GFP^2-plas1-RLuc2 fusion protein (BRET^2 plasmin sensor)

Chain of bovine plasmin (Sigma) (P06868 104-812 limits assumed): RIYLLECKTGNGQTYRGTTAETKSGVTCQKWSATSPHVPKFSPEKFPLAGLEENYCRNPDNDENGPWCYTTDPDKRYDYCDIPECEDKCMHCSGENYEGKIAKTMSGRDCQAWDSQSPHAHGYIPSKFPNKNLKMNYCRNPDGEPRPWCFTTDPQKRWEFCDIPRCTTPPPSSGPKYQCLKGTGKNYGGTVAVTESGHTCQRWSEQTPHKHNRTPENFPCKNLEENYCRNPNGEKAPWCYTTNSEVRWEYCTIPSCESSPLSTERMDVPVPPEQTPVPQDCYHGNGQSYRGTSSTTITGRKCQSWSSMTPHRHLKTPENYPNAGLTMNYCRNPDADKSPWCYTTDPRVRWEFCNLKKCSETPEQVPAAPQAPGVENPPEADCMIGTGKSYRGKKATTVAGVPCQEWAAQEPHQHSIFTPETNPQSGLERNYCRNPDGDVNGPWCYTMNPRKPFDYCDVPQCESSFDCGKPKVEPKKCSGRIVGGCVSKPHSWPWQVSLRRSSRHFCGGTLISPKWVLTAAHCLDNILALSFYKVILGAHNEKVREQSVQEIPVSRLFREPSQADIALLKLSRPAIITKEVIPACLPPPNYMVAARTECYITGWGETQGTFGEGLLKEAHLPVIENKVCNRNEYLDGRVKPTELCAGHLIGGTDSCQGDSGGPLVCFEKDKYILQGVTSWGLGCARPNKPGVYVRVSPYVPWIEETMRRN
Chain of human plasmin (Sigma) (P00747 97-810 limits assumed): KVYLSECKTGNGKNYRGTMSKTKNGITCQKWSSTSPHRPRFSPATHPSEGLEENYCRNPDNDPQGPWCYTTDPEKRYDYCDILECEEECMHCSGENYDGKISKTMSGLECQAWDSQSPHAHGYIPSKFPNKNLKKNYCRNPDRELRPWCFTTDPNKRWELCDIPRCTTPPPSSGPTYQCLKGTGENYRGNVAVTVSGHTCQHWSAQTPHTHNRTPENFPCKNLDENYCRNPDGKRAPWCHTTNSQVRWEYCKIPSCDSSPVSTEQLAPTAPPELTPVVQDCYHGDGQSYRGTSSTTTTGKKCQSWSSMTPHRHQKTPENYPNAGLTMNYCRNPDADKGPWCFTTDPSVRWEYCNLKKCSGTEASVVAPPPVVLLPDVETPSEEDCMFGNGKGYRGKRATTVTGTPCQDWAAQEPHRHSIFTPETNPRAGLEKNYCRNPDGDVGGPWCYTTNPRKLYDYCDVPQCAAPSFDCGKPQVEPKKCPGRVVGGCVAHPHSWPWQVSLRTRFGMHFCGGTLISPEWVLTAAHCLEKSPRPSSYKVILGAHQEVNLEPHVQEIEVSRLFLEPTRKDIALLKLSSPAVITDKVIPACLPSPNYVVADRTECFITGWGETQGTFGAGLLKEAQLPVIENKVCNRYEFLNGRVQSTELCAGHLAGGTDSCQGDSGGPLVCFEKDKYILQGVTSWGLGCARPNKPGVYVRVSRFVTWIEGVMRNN

Row | EC50, BRET^2 response, 50% full fat UHT milk [2] [nM] | EC50, BRET^2 response, 50% full fat UHT milk [5] [nM] | Substance | EC50, BRET^2 response, raw milk [1] [nM] | EC50, BRET^2 response, raw milk [2] [nM] | EC50, BRET^2 response, raw milk, protease concentration by BSA standard [2] [nM] | EC50, BRET^2 response, 50% full fat UHT milk [3] [nM] | EC50, BRET^2 response, 50% full fat UHT milk [4] [nM] | other results
1 | 169 | 108 | bovine plasmin (Sigma) (from UniProt P06868 97-805) (enzyme) | 174 | – | – | – | – | –
2 | 124 | 5.6 | human plasmin (Sigma) (from UniProt P00747 97-810) (enzyme) | – | – | – | 926 | 1280 | EC50, BRET^2 response, heat treated raw milk, one-step pre-treatment protocol [5]: 24.2 nM; EC50, BRET^2 response, heat treated raw milk, one-step pre-treatment with low power sonication [5]: 29.3 nM; EC50, BRET^2 response, heat treated raw milk, pre-treatment protocol of Rauh et al. (2014) [5]: 19.5 nM; EC50, BRET^2 response, heat treated raw milk, two-step pre-treatment protocol [5]: 16 nM
3 | – | – | crude bacterial protease from Pseudomonas fluorescens strain 117 (enzyme) | – | 0.2 | 2.6 | – | – | –

Row | Substance | EC50, BRET^2 response, 50% full fat UHT milk [2] [nM] | EC50, BRET^2 response, 50% full fat UHT milk [5] [nM] | EC50, BRET^2 response, raw milk [1] [nM] | EC50, BRET^2 response, raw milk [2] [nM] | EC50, BRET^2 response, raw milk, protease concentration by BSA standard [2] [nM] | EC50, BRET^2 response, 50% full fat UHT milk [3] [nM] | EC50, BRET^2 response, 50% full fat UHT milk [4] [nM] | other results
4 | crude bacterial protease from Pseudomonas fluorescens strain 65 (enzyme) | 0.7 | 50 | 0.5 | 0.14 | 1.63 | 2.6 | 2.3 | EC50, BRET^2 response, raw milk, protease concentration by BSA standard [1]: 5.4 nM; EC50, BRET^2 response, 50% full fat UHT milk, protease concentration by BSA standard [2]: 8.2 nM; EC50, BRET^2 response, 50% raw milk, no pre-treatment, 10 mins. incubation [2]: 0.14 nM; EC50, BRET^2 response, 50% raw milk, no pre-treatment, 2 hrs incubation [2]: 0.0339 nM; EC50, BRET^2 response, 50% raw milk, pre-treatment, 10 mins. incubation [2]: 0.353 nM; EC50, BRET^2 response, 50% raw milk, pre-treatment, 2 hrs incubation [2]: 0.1 nM; EC50, BRET^2 response, 50% full fat UHT milk, protease concentration by BSA standard [3]: 30.4 nM; EC50, BRET^2 response, 50% full fat UHT milk, protease concentration by BSA standard [4]: 26.4 nM; EC50, BRET^2 response, 50% full fat UHT milk, protease concentration by BSA standard [5]: 580 nM; EC50, BRET^2 response, raw milk [5]: 1.4 nM; EC50, BRET^2 response, raw milk, protease concentration by BSA standard [5]: 16.2 nM
